The nature of this data set: soluble fraction after stress (log2 fold change); higher = more stays soluble; pooled small domains, quantitative proteomics. As to conditions: stress: pH 4. An outline of the steps:
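Pooled custom libraries of small protein domains were stressed at pH 4 and then measured by high-throughput quantitative proteomics. The fold change in the amount of each domain that stays soluble after the acid stress serves as a measure of aggregation propensity. Fold changes are given on a log2 scale, and higher values mean more of the domain stayed soluble.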
As to “HMQMPDLTGKPRAEAVTTLAALGFTDVKFLDASAGDEPLDYVADQVVRTSPEAGAALASGQQITIYLAT”, the “soluble fraction (log2)” value is -0.0191. Then “HMQMSDTSMIRDLVLQVLAENPQSIEDFKNGKDRAVGFLVGMVMKKSQGKANPQITNQMIVEELKK”, with -0.277; and “HMQMSERENTILLTKRYIERGEYERAMNLLDSLLIKNALDEEALAMIDEIIALKAGASLQDFPRY”, with -1.48. Then “HMQMTTPQMVPLFTDLSVDDSASIIKDLERQAVPYQIKSDGAIIMVPKDKVTRLRMKLAESGLPK”, with 0.402; and “HMQNDDLTKLDGIGPYIEQRLNDIGIYNYEQLSKLNTEDIQKITELIDFFPGRIERDNWVSQAQLLKI”, with -0.807.

Take “HMQNDILIQADEIVGDYFDMDKEALKMNKQAVIADIEKRQATAQGDEASALHYAKQKVENEFEDDGSQKD”: the “soluble fraction (log2)” value is -0.233. Then “HMQNKFLDIVGEIEVKAVDYYLLKDTSGLVIKFPKNLVFANGLKIADNKIGLTVSLYGAWVHEET”, with -0.498; and “HMQNKYIIKQGNSGELVEVLQELLNLKQDGVFGPQTKKAVIAFQQKHKLVADGIVGPMSWRKLNFNPEELF”, with -0.282. The value for “HMQNLISSDEAKNIALQHANLTDNQVTFIKVSKDYDDGIHIYEVEFHYNNREYNYDINAINGTILSYEQ” was -0.173; that for “HMQNNKITIYISGAVNRPGIVTIESDKRLYDAVELLGGTTKEADLNGVNLSVRLEDEQHYIIPKIGEA” was -0.491; that for “HMQNNWFYEENGQRKGPVSENEMVQFIKSSVISHGTSVWKQGFPDWLKVENTDLRVHLDNSAP” was -0.611. Then “HMQNREQNILDGKSILDKELKRVGLLNQSAAIMAQEMKFNSQDDLFAALGSGATRIGQIINHLQKQS”, with 0.0793.

For “HMQNSMTTTPDVVGKTGTFAEQMLKAANLNVQFAGDSSGKVVAQDVEAGTSAAYGTIITLTMDS”, the “soluble fraction (log2)” value came to 0.25. Then “HMQNVKIKAEVKGEVISPGVYELDEESRIQDLIDASGGFSDKAYYDNINLSMKLKDEMVLVVYDKDKI”, with -1.35. As to “HMQPADYSDLYAAAKSAGEADMRAAFALTDKQERTAAVNAARETIKAALSEEQLADANLGSALKKLEAGV”, the “soluble fraction (log2)” value was -0.261. Then “HMQPASPELNNQEKKVLQALPENEVIHIDELSDKIQIPVGELLTVLLSLEMKETVIQEPGKFFRRR”, with -0.886; and “HMQPDFLDAKASLALLGVRPQTLYAYVSRGAIRSVPQPGTKAHLYSRSDIERVMARAAARAG”, with -0.019.

As to “HMQPDYRVLYSNFSDKDGGAIVAALEKMNVPYKFSEGGSAILVPAGQVHQARLKLAADGLPK”, the “soluble fraction (log2)” value came out at 0.205. Then “HMQPLGHDLTERELDVLALMVTGMNNSEIADKLVVSRSTIKYHVSNILSKLQATSRTEAVAYALQQNLVH”, with -1.41. The value for “HMQPQIDFEIDVEVRASSLRIVAAPNSDVLVATVGRGEHVVQLTYPKDGWVMIRTADDRVGFVPESLLL” was -0.254.

Turning to “HMQPQYSVLFSNIEEKDGGSIITLLQQGNVPYKVENGGTTILVPANRANELRLTLAAQGLPK”, the “soluble fraction (log2)” value came out at 0.223. The value for “HMQPVLSDAEVNDLKNIAGGERGYNQLMDWAGNNLTAQDAKSYDDVLATGNKAAISFAIKALMGQYEDAN” was -0.453. The value for “HMQQEAVNLVQSRGQQAIEPVHIMQGVMKVGENVTNFIFQKLGMNGQQVALVVDKQIDSLPKVSGGEPYL” was -0.0637; that for “HMQQEAVSGKLLQLDLAKKEGRLSTDLGREVLFHIPKPELFVHLSVGQRIIIKLDAGQEAVGV” was 0.0773. On to “HMQQELDAFKLLITVSGVGPKAAMAVLSVLPPDRLSIAVSSGDVKSIQSAQGVGKKTAERIVLELKDKM”, for which the “soluble fraction (log2)” value was -0.976.

As for “HMQQIEIEEPITVKNLSAVAGLKASEIIAKLMKLGVMSTINQVMERQHAEEIAGEYGFELVVK”, the “soluble fraction (log2)” value was -0.154.

As to “HMQQISDPQVLRPMAEEVLHQSQKVVQDYKGGNKNAFHALVGQMMKKTQGKGNPQVIGQVLSELLDE”, the “soluble fraction (log2)” value is -0.284. In the case of “HMQQKNWIVRDGDGKIYGPFTTEQVLVQIDRGYFVGGEEVALYPGGRWIAISGAPEFYDRLLDALAMEG”, the “soluble fraction (log2)” value is -1.29. Take “HMQQQLLHIVFGGELKDVTGIEFEDLSKMDFVGAFSNYKDAYDAWKSAAQRTVDHAEMRYFILHAHKLL”: the “soluble fraction (log2)” value was -2.31. Turning to “HMQQRTVEHVDTAVEALALSIGERAGVDLPYMAHLTGKTQEDLIEDLTGVIFPVPGTEPLRYVTADDYLS”, the “soluble fraction (log2)” value was -0.835. The value for “HMQQSVSSLVRRYMLQTIPGINFSLKSTALALNMSDRTLQRKLLSENTSYQIILDDVRKELAIKYLKE” was -0.43; that for “HMQQVIQSGQKVQLMATDGSFQVSAEGVALKNGSVGEVIGVRMPSGRVISGVVSASGAVEVR” was 0.0769. In the case of “HMQQVLGDVNEDDKVDFLDAIVVLRHDAEIIQLTDNQMKAAEVNKDGKVDFLDAIMILRYDAEIIGS”, the “soluble fraction (log2)” value is -0.196.

With “HMQRDDMQIDRLIQIVFLLLSRNNLTAKQLAEELGVSTRTIYRDINILSVAGIPITSQKGYGGGLSLLQG”, the “soluble fraction (log2)” value is -0.261. The value for “HMQRDELRYDQFLTALQNKEFTQLNVRFDDYTYLVTGTFQSGRPFSTRGPVSEEFIRLIESSGVQVTWLPM” was -1.28. The value for “HMQRDERYVYHTVLAGETIYSLSRKFNVTMDELLESNPALRSGVLTTGSEIRVLKAQMAQNFD” was 0.383; that for “HMQRQGTVATQQTPLNIRSQPSLSAQVIGQAPKGATVAILGESGDWYQIRYQNITGYSSKQYI” was at least 0.43. Then “HMQRSVEDVFVQLRNGMDTYDMTQIEDALRILHGMELSTAQRDLLDKVQEAYNDLEYETGAALLAGFERIK”, with -0.981; and “HMQRYFINEPVPEDQRLVLPKDIAHHLVDVLRAEQNDELEVALNDQKVYLARLISLNPATVELQSDLG”, with -0.176. For the sequence “HMQRYFLEEAYQPSEKFELSAEAFHHIVHVMRMKPKDRVYLAFSDQQVIIAEITEITEEKVYLTEIEKEE”, the “soluble fraction (log2)” value was -1.63. The value for “HMQRYYDVLGLQKGVSPEELKKTYRELSKKYHPDAHHNSPLRDLAEAKFKEINEAYEKIKEFLDNNF” was -0.597; that for “HMQSAKLSYSDFMQKVNAGDVVSVKIQGPKISGVTTGGGKFMTYAPEDPTLVSTLMQKKVEVMAEP” was 0.173; that for “HMQSAMALTKDLIEQQGKYYHRGQPFTGVGFAKNKKGKFVTEEPFKNGLLHGKRVNYDHNGHVLAREK” was -0.12. Then “HMQSEESTHIGERMLNQALRAMHVEPSAVKEKQWEKLIRDYSVKNKQDILTDIGLGKRQSVMVAHQLLAI”, with -0.028; and “HMQSEISRIGRILKERRLQLGYTQEYAAEKAGISYSYYTKIERGQQLPSLEVAMVLSKTFSLSMDRWL”, with -0.599; and “HMQSFIEELLPVVDNFERSLAVVDPSDEIKNFLKGYEMIYNQLMEVLKSQGVEVIKTEGEEFDPNFHQA”, with -0.776.

Regarding “HMQSHIVPDVKSQHIAQAKALLESKQMKAVVIDSNFVKGLPAGIVLDQTPIGGARVKENRTIYLTINTL”, the “soluble fraction (log2)” value amounted to 0.0867. In the case of “HMQSMEIDENEIPSIDKLSEYIEYFKRIYNALFDDKQLAITNIDVLERHFANNFNTLRFKMDE”, the “soluble fraction (log2)” value is -0.534. Then “HMQSNDAGELEAVVKGIIDANPKVVADYLAGNQKVVSFFVGQAMKATKGKANPKMVSEILGKLL”, with at least 0.43; and “HMQSQIAQLYNPLLGYVKKRINSREDAEDLTQDIFLKLSKSNKDGVDNLKSWLYTIAKNTITDYYRKKKII”, with -0.0414. As for “HMQSREISYSDFVASVERGEVATVILDGENIRFKGGDNVEYVTVRPADTNVTDLLIENQVVVRAEK”, the “soluble fraction (log2)” value was -0.824. The value for “HMQSTVSTHQKTLALDTAQSGIPVFPVSSTHKRPLTDHGYKDATADADAVRKIWQQFPSAFV” was 0.22; that for “HMQSVKTQPLRDWLLAHFDKPYPDDEDKVRLAEASGMTRAQVGNWFINARVRTWRPMVLDLGEEIERESV” was -0.521; that for “HMQTEFVISSGEQPKRLDVFLLQREPYLSRAALQRMIAAGWVRVNNHLAKSSQRIKAGDVIVFD” was 0.0697.

Regarding “HMQTFGTMIAALRKEQGMTQLELAEKMGVTDKAVSKWERDLSFPDVNSLPKLAEIFHVSVDEL”, the “soluble fraction (log2)” value was 0.216. Then “HMQTLGADLRALRKARGLTLTDMAETLGRSVGWLSQVERDLSEPSITDLRHMARTLGVSVSMLFS”, with -0.553; and “HMQTLQNNLKQIRSRVGLTQGELASRAGISRQAYSTLESGNANPSTEVSLRLAEALNERIESLFFLANQ”, with -0.846; and “HMQTSETVYTTDKVNVRAGADTSSDKLGSVEKGTSLTRTGTDGDWSIIDYNGTTGYIKSEYLSATAPE”, with 0.316. Regarding “HMQTTKTGTITASSLYVRSGASTSHKVLGTVSKGKTVQIKDTQDGWHKISYNGDHGWVSGKYVSTT”, the “soluble fraction (log2)” value was at least 0.43. Take “HMQTTVHLSPEEMVIMNALKQESPIDLPILRAQVEMSNKLWDTSMKNLSKLGQLKVEKIGEQVSVSLI”: the “soluble fraction (log2)” value was at least 0.43. The value for “HMQVAPDLMQRLTSQGHVDEKLSDALVHARQITNFEGRRRQMQFIGKLMRKLSEESIEAVKDALNEQRM” was -0.244.

In the case of “HMQVDENNINKRIDKYLSENTEYSRSTIQKMIDNGNITVNSKPTKSSYKLELNDIITIDNNFKE”, the “soluble fraction (log2)” value is -0.0731. The value for “HMQVEYTRGELIQDLEGGKIVYAGISPSRETPTGEVNFILDSGLTRTLYVTDVSEIEQLLISYDIDPEVKK” was -1.63. Then “HMQVFDSNEIDEVVKKVIENNPQAVADFKKGKSNALQFLAGQVMRETKGRFNPNVVQERIRLLLT”, with 0.256; and “HMQVLLTRREKEILKLIAEGLTSAEIGKRLFISTTTVDTHRKHLLEKLKAGNTAILIKTAVQLDLI”, with -0.223. The value for “HMQVPWYQRLKEKRLEYGVSQNKLATHIGISRQYMSEIETGKVTPSDSLQATLFDILEQFNPDA” was -0.74; that for “HMQVRVERSRDKVVISGVNYYIHPVRKGETVYSIARAYGITTQDLVRENPSAAEGLKEGQSIRIPERLVD” was 0.22. With “HMQVSDEGPIKAILQEVLDKSPTQLADYASGKVKLRQYFFGEAMKALKGKANPQVINKLLDEMLPPVAA”, the “soluble fraction (log2)” value was -0.178. Then “HMQVSDVTELRTILEKVITENESVATEFKEGKDAAMNFLVGQGMKATRGAADPALLKEIITGIL”, with -0.358.
